Data reported in US20090298765A1 (Takeda / Millennium, published 2009).
Starred links: 1 amine or outer side, 2 acyl side, 3 side chain; linkers in the order of their positions; H or OH if unused. Non-standard residues stand in square brackets, D forms with d. No end group written: not given here. Ala(2-Qui) = 2-quinolylalanine, O=C([C@H](Cc1ccc2ccccc2n1)N[*:1])[*:2]; Phe(3,4-Cl2) = N[C@@H](Cc1ccc(Cl)c(Cl)c1)C(=O)O; Arg(Me) = CNC(=N)NCCC[C@H](N)C(=O)O; Cha = N[C@@H](CC1CCCCC1)C(=O)O; Abu = CC[C@H](N)C(=O)O; azaGly = NNC(=O)O

B1: [D-Tyr1,Cha3,AzaGly7,Arg(Me)9]MS10 (peptide)
peptide: [dY]N[Cha]NSF[azaGly]L[Arg(Me)]F-NH2
modifications: N-terminus assumed
SMILES: CNC(=N)NCCC[C@H](NC(=O)[C@H](CC(C)C)NC(=O)NNC(=O)[C@H](Cc1ccccc1)NC(=O)[C@H](CO)NC(=O)[C@H](CC(N)=O)NC(=O)[C@H](CC1CCCCC1)NC(=O)[C@H](CC(N)=O)NC(=O)[C@H](N)Cc1ccc(O)cc1)C(=O)N[C@@H](Cc1ccccc1)C(N)=O
notes: also called Compound No. 190
B2: des(1)-[D-Tyr2,AzaGly7,Arg(Me)9]MS10 (peptide)
peptide: [dY]WNSF[azaGly]L[Arg(Me)]F-NH2
modifications: N-terminus assumed
SMILES: CNC(=N)NCCC[C@H](NC(=O)[C@H](CC(C)C)NC(=O)NNC(=O)[C@H](Cc1ccccc1)NC(=O)[C@H](CO)NC(=O)[C@H](CC(N)=O)NC(=O)[C@H](Cc1c[nH]c2ccccc12)NC(=O)[C@H](N)Cc1ccc(O)cc1)C(=O)N[C@@H](Cc1ccccc1)C(N)=O
notes: also called Compound No. 222
B3: des(1)-[D-Tyr2,Arg(Me)9]MS10 (peptide)
peptide: [dY]WNSFGL[Arg(Me)]F-NH2
modifications: N-terminus assumed
SMILES: CNC(=N)NCCC[C@H](NC(=O)[C@H](CC(C)C)NC(=O)CNC(=O)[C@H](Cc1ccccc1)NC(=O)[C@H](CO)NC(=O)[C@H](CC(N)=O)NC(=O)[C@H](Cc1c[nH]c2ccccc12)NC(=O)[C@H](N)Cc1ccc(O)cc1)C(=O)N[C@@H](Cc1ccccc1)C(N)=O
notes: also called Compound No. 217
B4: [D-Tyr1,Ala4,Arg(Me)9]MS10 (peptide)
peptide: [dY]NWASFGL[Arg(Me)]F-NH2
modifications: N-terminus assumed
SMILES: CNC(=N)NCCC[C@H](NC(=O)[C@H](CC(C)C)NC(=O)CNC(=O)[C@H](Cc1ccccc1)NC(=O)[C@H](CO)NC(=O)[C@H](C)NC(=O)[C@H](Cc1c[nH]c2ccccc12)NC(=O)[C@H](CC(N)=O)NC(=O)[C@H](N)Cc1ccc(O)cc1)C(=O)N[C@@H](Cc1ccccc1)C(N)=O
notes: also called Compound No. 210
B5: [D-Tyr1,Ala5,Arg(Me)9]MS10 (peptide)
peptide: [dY]NWNAFGL[Arg(Me)]F-NH2
modifications: N-terminus assumed
SMILES: CNC(=N)NCCC[C@H](NC(=O)[C@H](CC(C)C)NC(=O)CNC(=O)[C@H](Cc1ccccc1)NC(=O)[C@H](C)NC(=O)[C@H](CC(N)=O)NC(=O)[C@H](Cc1c[nH]c2ccccc12)NC(=O)[C@H](CC(N)=O)NC(=O)[C@H](N)Cc1ccc(O)cc1)C(=O)N[C@@H](Cc1ccccc1)C(N)=O
B6: [D-Tyr1,Arg(Me)9,Trp10]MS10 (peptide)
peptide: [dY]NWNSFGL[Arg(Me)]W-NH2
modifications: N-terminus assumed
SMILES: CNC(=N)NCCC[C@H](NC(=O)[C@H](CC(C)C)NC(=O)CNC(=O)[C@H](Cc1ccccc1)NC(=O)[C@H](CO)NC(=O)[C@H](CC(N)=O)NC(=O)[C@H](Cc1c[nH]c2ccccc12)NC(=O)[C@H](CC(N)=O)NC(=O)[C@H](N)Cc1ccc(O)cc1)C(=O)N[C@@H](Cc1c[nH]c2ccccc12)C(N)=O
notes: also called Compound No. 174
B7: [D-Tyr1,Ile3,Arg(Me)9]MS10 (peptide)
peptide: [dY]NINSFGL[Arg(Me)]F-NH2
modifications: N-terminus assumed
SMILES: CC[C@H](C)[C@H](NC(=O)[C@H](CC(N)=O)NC(=O)[C@H](N)Cc1ccc(O)cc1)C(=O)N[C@@H](CC(N)=O)C(=O)N[C@@H](CO)C(=O)N[C@@H](Cc1ccccc1)C(=O)NCC(=O)N[C@@H](CC(C)C)C(=O)N[C@@H](CCCNC(=N)NC)C(=O)N[C@@H](Cc1ccccc1)C(N)=O
notes: also called Compound No. 206
B8: [D-Tyr1,Thr5,Arg(Me)9]MS10 (peptide)
peptide: [dY]NWNTFGL[Arg(Me)]F-NH2
modifications: N-terminus assumed
SMILES: CNC(=N)NCCC[C@H](NC(=O)[C@H](CC(C)C)NC(=O)CNC(=O)[C@H](Cc1ccccc1)NC(=O)[C@@H](NC(=O)[C@H](CC(N)=O)NC(=O)[C@H](Cc1c[nH]c2ccccc12)NC(=O)[C@H](CC(N)=O)NC(=O)[C@H](N)Cc1ccc(O)cc1)[C@@H](C)O)C(=O)N[C@@H](Cc1ccccc1)C(N)=O
notes: also called Compound No. 211
B9: [Abu8]MS10 (peptide)
peptide: YNWNSFG[Abu]RF-NH2
modifications: N-terminus assumed
SMILES: CC[C@H](NC(=O)CNC(=O)[C@H](Cc1ccccc1)NC(=O)[C@H](CO)NC(=O)[C@H](CC(N)=O)NC(=O)[C@H](Cc1c[nH]c2ccccc12)NC(=O)[C@H](CC(N)=O)NC(=O)[C@@H](N)Cc1ccc(O)cc1)C(=O)N[C@@H](CCCNC(=N)N)C(=O)N[C@@H](Cc1ccccc1)C(N)=O
notes: also called Compound No. 187
B10: des(1)-[D-Tyr2,D-Trp3,AzaGly7,Arg(Me)9]MS10 (peptide)
peptide: [dY][dW]NSF[azaGly]L[Arg(Me)]F-NH2
modifications: N-terminus assumed
SMILES: CNC(=N)NCCC[C@H](NC(=O)[C@H](CC(C)C)NC(=O)NNC(=O)[C@H](Cc1ccccc1)NC(=O)[C@H](CO)NC(=O)[C@H](CC(N)=O)NC(=O)[C@@H](Cc1c[nH]c2ccccc12)NC(=O)[C@H](N)Cc1ccc(O)cc1)C(=O)N[C@@H](Cc1ccccc1)C(N)=O
notes: also called Compound No. 242
B11: [Ala(2-Qui)10]MS10 (peptide)
peptide: YNWNSFGLR[Ala(2-Qui)]-NH2
modifications: N-terminus assumed
SMILES: CC(C)C[C@H](NC(=O)CNC(=O)[C@H](Cc1ccccc1)NC(=O)[C@H](CO)NC(=O)[C@H](CC(N)=O)NC(=O)[C@H](Cc1c[nH]c2ccccc12)NC(=O)[C@H](CC(N)=O)NC(=O)[C@@H](N)Cc1ccc(O)cc1)C(=O)N[C@@H](CCCNC(=N)N)C(=O)N[C@@H](Cc1ccc2ccccc2n1)C(N)=O
notes: also called Compound No. 201

What was measured:
[1] = molecular target: T1, human OT7T175 (metastin receptor) (human, UniProt Q969F8 1-398); experiment: cell-based or functional assay
[2] = molecular target: T1, human OT7T175 (metastin receptor); experiment: competition with Cy-5 metastin (40-54) on hOT7T175-CHO cells, FMAT
[3] = molecular target: T1, human OT7T175 (metastin receptor); experiment: cell-based or functional assay; remark: listed apart in the source

T1 sequence (Q969F8 whole entry L364H): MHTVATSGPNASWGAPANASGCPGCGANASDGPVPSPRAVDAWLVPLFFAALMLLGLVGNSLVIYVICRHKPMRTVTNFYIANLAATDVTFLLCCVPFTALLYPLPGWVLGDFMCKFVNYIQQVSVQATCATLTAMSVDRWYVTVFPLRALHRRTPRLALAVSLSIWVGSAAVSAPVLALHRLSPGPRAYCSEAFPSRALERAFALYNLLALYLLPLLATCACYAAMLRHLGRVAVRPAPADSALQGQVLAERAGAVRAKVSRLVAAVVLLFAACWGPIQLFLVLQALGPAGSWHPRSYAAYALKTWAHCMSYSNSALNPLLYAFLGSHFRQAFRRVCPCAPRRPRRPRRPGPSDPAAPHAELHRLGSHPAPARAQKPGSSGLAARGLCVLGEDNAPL

Row | Binder | Ca ion level-increasing activity (FLIPR) [1] | IC50 [2] | Ca ion level-increasing activity (FLIPR, 40 s) [3]
1 | B1 | 10 x Metastin (1-54) | 12 nM | 
2 | B2 | 10 x Metastin (1-54) | 33 nM | 2.7 EC50/MS10 EC50
3 | B3 | 20 x Metastin (1-54) | 250 nM | 3.1 EC50/MS10 EC50
4 | [dY]TNSF[azaGly]L[Arg(Me)]F-NH2 (also called Compound No. 241) [des(1)-[D-Tyr2,Thr3,AzaGly7,Arg(Me)9]MS10] | 1 x Metastin (1-54) | 56 nM | 5.3 EC50/MS10 EC50
5 | YNWNSFGLR[Phe(3,4-Cl2)]-NH2 (also called Compound No. 199) [[Phe(3,4Cl2)10]MS10] | 3 x Metastin (1-54) | 470 nM | 
6 | YNWNSXGLRF (D-Tyr1; Cha6; Arg(Me)9; C-terminal amide, also called Compound No. 203) [[D-Tyr1,Cha6,Arg(Me)9]MS10] | 10 x Metastin (1-54) | 37 nM | 
7 | B4 | 1 x Metastin (1-54) | 730 nM | 9.3 EC50/MS10 EC50
8 | B5 | 10 x Metastin (1-54) | 36 nM | 1.1 EC50/MS10 EC50
9 | B6 | 10 x Metastin (1-54) | 420 nM | 2.3 EC50/MS10 EC50
10 | [dY]NWTSFGL[Arg(Me)]F-NH2 (also called Compound No. 208) [[D-Tyr1,Thr4,Arg(Me)9]MS10] | 1 x Metastin (1-54) | 830 nM | 7.3 EC50/MS10 EC50
11 | B7 | 10 x Metastin (1-54) | 85 nM | 4.8 EC50/MS10 EC50
12 | B8 | 10 x Metastin (1-54) | 44 nM | 1.3 EC50/MS10 EC50
13 | [dY][dW]NSFGL[Arg(Me)]F-NH2 (also called Compound No. 224) [des(1)-[D-Tyr2,D-Trp3,Arg(Me)9]MS10] | 2 x Metastin (1-54) | 140 nM | 
14 | B9 | 1 x Metastin (1-54) | 720 nM | 1.9 EC50/MS10 EC50
15 | B10 | 2 x Metastin (1-54) | 70 nM | 1.4 EC50/MS10 EC50
16 | B11 | 1 x Metastin (1-54) | 820 nM | 
